Reference: patent US20200283482A1, “BICYCLIC PEPTIDE LIGAND PRR-A CONJUGATES AND USES THEREOF” (BicycleRD Limited, priority 2017, published 2020)
Starred links: 1 amine or outer side, 2 acyl side, 3 side chain; linkers in the order of their positions; H or OH if unused. Positions of bridges follow the written chain, without caps; N, C: chain ends. Non-standard residues stand in square brackets, D forms with d. Residues, ends and D or L forms follow the SMILES beside them. *: point of attachment. X9 = CCOCc1nc2c(NC(=O)[C@H](CCCCNC(=O)OCc3ccc(NC(=O)[C@H](CCCNC(N)=O)NC(=O)[C@@H](NC(=O)Cn4cc(CCC(=O)*)nn4)C(C)C)cc3)NC(C)=O)nc3ccccc3c2n1CC(C)(C)O; X12 = CCOCc1nc2c(NC(=O)OCCN(C)C(=O)OCc3ccc(NC(=O)[C@H](CCCNC(N)=O)NC(=O)[C@@H](NC(=O)Cn4cc(CCC(=O)*)nn4)C(C)C)cc3)nc3ccccc3c2n1CC(C)(C)O; X7 = CCOCc1nc2c(NC(=O)CCCNC(=O)OCc3ccc(NC(=O)[C@H](CCCNC(N)=O)NC(=O)[C@@H](NC(=O)Cn4cc(CCC(=O)*)nn4)C(C)C)cc3)nc3ccccc3c2n1CC(C)(C)O; X8 = CCOCc1nc2c(NC(=O)OCc3ccc(NC(=O)[C@H](CCCNC(N)=O)NC(=O)C4(C(=O)*)CCC4)cc3)nc3ccccc3c2n1CC(C)(C)O; X10 = CCCOc1nc(NC(=O)OCCSSC(C)CCC(=O)*)c2[nH]c(=O)n(Cc3ccc(OCCN(C)C)nc3)c2n1; Resiquimod = CCOCc1nc2c(N*)nc3ccccc3c2n1CC(C)(C)O; 1Nal = N[C@@H](Cc1cccc2ccccc12)C(=O)O; TBMB = c1c(C[*:1])cc(C[*:3])cc1C[*:2]; X5 = O=C(CCc1cn(CCCN[*:1])nn1)[*:2]; Glutaryl = O=C(CCCC(=O)[*:2])[*:1]; Tle = CC(C)(C)[C@H](N)C(=O)O; βAla = NCCC(=O)O; Sar = CNCC(=O)O

What was measured:
Blood stability, mouse = assay type: in vitro ADME, CD-1 mouse; settings: male
Method: CD-1 mouse blood (n≥2, male, fasted overnight) is collected from animals housed at an internal facility. (EDTA-K2 is used as anticoagulant)
The test compounds and positive control stock solutions are prepared to 10 mM in DMSO or ultrapure water. Control compounds bisacodyl, enalapril and propantheline known to be metabolised by blood are also incubated alongside each batch of test compounds I-7, I-22, I-24, I-25, I-27, and I-29 to I-33. The dosing solutions of test compounds and controls are prepared by diluting the stock solution with 45% MeOH/H2O to achieve 100 uM. Test compound solutions (final incubation concentration=2 μM) are incubated with blood (final DMSO concentration≤1%) at six different time points (0, 1, 2, 4, 6 and 24 hours) in duplicate (n=2). The reaction is terminated by adding 100 uL ultra-pure water, mixing well, then adding 800 uL of 100% methanol containing 200 ng/mL tolbutamide and 200 ng/mL labetalol as internal standards. Samples are then vortexed and centrifuged at 3200×g for 20 minutes. Following centrifugation, the concentration of test compound in the supernatant is determined semi-quantitatively by LC-MS/MS. The percentage of test compound remaining at the individual time points relative to the 0 hour sample is then reported. The percent remaining of test compound after incubation in blood is calculated using following equation: Percent Remaining=100×(PAR at appointed incubation time/PAR at T0 time) where PAR is the peak area ratio of analyte versus internal standard (IS).

Plasma stability, rat = assay type: in vitro ADME; settings: pH 7.4
Method: (§1) The pooled frozen mouse, rat, dog, monkey or human plasma is thawed in a water bath at 37° C. prior to experiment. Plasma is centrifuged at 4000 rpm for 5 min and the clots are removed if any. […] For positive controls, 100 μM intermediate solution is prepared by diluting 20 μL of the stock solution with 180 μL 45% MeOH/H2O. […] For compounds I-7 to […]-17, […]-22, and […]-33, at each time point (0, 1, 2, 4, 6 and 24 hr), reactions were stopped by removing the plates from water bath and 200 μL 20 mM NH4OAC mix well first and then adding 800 μL of ice-cold stop solution (200 ng/mL Labetalol, 200 ng/mL Tolbutamide, 500 ng/mL N6-Ben and 40 mM DBAA in 100% Methanol). […] Sample plates were vortexed immediately on a plate shaker at 800 rpm for 10 min and then centrifuged at 4,000 rpm for 10 min. An aliquot of supernatant (200 μL) is transferred from each well before submitting to LC-MS/MS analysis. The percentage of test compound remaining at the individual time points relative to the 0 hour sample is calculated using following equation: Percent Remaining=100×(PAR at appointed incubation time/PAR at T0 time) where PAR is the peak area ratio of analyte versus internal standard (IS).

Plasma stability, mouse = assay type: in vitro ADME; settings: pH 7.4
Method: as §1

Plasma stability, cyno = assay type: in vitro ADME; settings: cynomolgus monkey, pH 7.4
Method: as §1

Plasma stability, human = assay type: in vitro ADME; settings: pH 7.4
Method: as §1

Plasma stability, dog = assay type: in vitro ADME; settings: pH 7.4; dog plasma, 2 μM, 37° C.; read-out: T1/2 (dog)
Method: as §1

Row | SMILES | half-life at 2 μM (Blood stability, mouse; CD-1, mouse) [min] | half-life at 2 μM (Plasma stability, rat; rat, plasma) [min] | half-life at 2 μM (Plasma stability, mouse; mouse, plasma) [min] | half-life at 2 μM (Plasma stability, cyno; plasma) [min] | half-life at 2 μM (Plasma stability, human; human, plasma) [min] | half-life at 2 μM (Plasma stability, rat; rat plasma, 2 μM, 37° C., read-out: T1/2 (rat)) [min] | half-life at 2 μM (Plasma stability, mouse; mouse plasma, 2 μM, 37° C., read-out: T1/2 (mouse)) [min] | half-life at 2 μM (Plasma stability, cyno; cyno plasma, 2 μM, 37° C., read-out: T1/2 (cyno)) [min] | half-life at 2 μM (Plasma stability, human; human plasma, 2 μM, 37° C., read-out: T1/2 (human)) [min] | half-life at 2 μM (Plasma stability, dog) [min] | half-life at 2 μM (Blood stability, mouse; CD-1 mouse blood, 2 μM, read-out: T1/2 (mouse)) [min]
1 | CCOCc1nc2c(NC(=O)CCCNC(=O)OCc3ccc(NC(=O)[C@H](CCCNC(N)=O)NC(=O)[C@@H](NC(=O)Cn4cc(CCC(=O)NCCC(=O)N(C)CC(=O)N(C)CC(=O)N(C)CC(=O)N(C)CC(=O)N(C)CC(=O)N(C)CC(=O)N(C)CC(=O)N(C)CC(=O)N(C)CC(=O)N(C)CC(=O)N[C@@H](C)C(=O)N[C@H]5CSCc6cc7cc(c6)CSC[C@H](NC(=O)[C@@H](C)NC(=O)[C@H](Cc6cccc8ccccc68)NC(=O)[C@H](CCC(=O)O)NC(=O)[C@H](CC(N)=O)NC(=O)[C@@H](C)NC5=O)C(=O)N[C@@H](CCC(=O)O)C(=O)N[C@@H](CC(=O)O)C(=O)N[C@@H](Cc5ccccc5)C(=O)N[C@@H](Cc5ccc(O)cc5)C(=O)N[C@@H](CC(=O)O)C(=O)N[C@@H](C(C)(C)C)C(=O)N[C@H](C(N)=O)CSC7)nn4)C(C)C)cc3)nc3ccccc3c2n1CC(C)(C)O [I-27] ({X7-βAla}-[Sar][Sar][Sar][Sar][Sar][Sar][Sar][Sar][Sar][Sar]AC[dA]NE[1Nal][dA]CEDFYD[Tle]C-NH2; linker 12-18-25 via TBMB) | 120 to 360 | > 1440 | < 120 | > 1440 | > 1440 | – | – | – | – | – | –
2 | CCOCc1nc2c(NC(=O)[C@H](CCCCNC(=O)OCc3ccc(NC(=O)[C@H](CCCNC(N)=O)NC(=O)[C@@H](NC(=O)Cn4cc(CCC(=O)NCCC(=O)N(C)CC(=O)N(C)CC(=O)N(C)CC(=O)N(C)CC(=O)N(C)CC(=O)N(C)CC(=O)N(C)CC(=O)N(C)CC(=O)N(C)CC(=O)N(C)CC(=O)N[C@@H](C)C(=O)N[C@H]5CSCc6cc7cc(c6)CSC[C@H](NC(=O)[C@@H](C)NC(=O)[C@H](Cc6cccc8ccccc68)NC(=O)[C@H](CCC(=O)O)NC(=O)[C@H](CC(N)=O)NC(=O)[C@@H](C)NC5=O)C(=O)N[C@@H](CCC(=O)O)C(=O)N[C@@H](CC(=O)O)C(=O)N[C@@H](Cc5ccccc5)C(=O)N[C@@H](Cc5ccc(O)cc5)C(=O)N[C@@H](CC(=O)O)C(=O)N[C@@H](C(C)(C)C)C(=O)N[C@H](C(N)=O)CSC7)nn4)C(C)C)cc3)NC(C)=O)nc3ccccc3c2n1CC(C)(C)O [I-24] ({X9-βAla}-[Sar][Sar][Sar][Sar][Sar][Sar][Sar][Sar][Sar][Sar]AC[dA]NE[1Nal][dA]CEDFYD[Tle]C-NH2; linker 12-18-25 via TBMB) | 360 to 1440 | 360 to 1440 | 360 to 1440 | > 1440 | > 1440 | – | – | – | – | – | –
3 | CCCOc1nc(NC(=O)OCCSSC(C)CCC(=O)NCCC(=O)N(C)CC(=O)N(C)CC(=O)N(C)CC(=O)N(C)CC(=O)N(C)CC(=O)N(C)CC(=O)N(C)CC(=O)N(C)CC(=O)N(C)CC(=O)N(C)CC(=O)N[C@@H](C)C(=O)N[C@H]2CSCc3cc4cc(c3)CSC[C@H](NC(=O)[C@@H](C)NC(=O)[C@H](Cc3cccc5ccccc35)NC(=O)[C@H](CCC(=O)O)NC(=O)[C@H](CC(N)=O)NC(=O)[C@@H](C)NC2=O)C(=O)N[C@@H](CCC(=O)O)C(=O)N[C@@H](CC(=O)O)C(=O)N[C@@H](Cc2ccccc2)C(=O)N[C@@H](Cc2ccc(O)cc2)C(=O)N[C@@H](CC(=O)O)C(=O)N[C@@H](C(C)(C)C)C(=O)N[C@H](C(N)=O)CSC4)c2[nH]c(=O)n(Cc3ccc(OCCN(C)C)nc3)c2n1 (stereo partly drawn) [I-17] ({X10-βAla}-[Sar][Sar][Sar][Sar][Sar][Sar][Sar][Sar][Sar][Sar]AC[dA]NE[1Nal][dA]CEDFYD[Tle]C-NH2; linker 12-18-25 via TBMB) | – | – | – | – | – | < 120 | < 120 | < 120 | < 120 | < 120 | –
4 | CCOCc1nc2c(NC(=O)OCc3ccc(NC(=O)[C@H](CCCNC(N)=O)NC(=O)C4(C(=O)NCCCn5cc(CCC(=O)NCCC(=O)N(C)CC(=O)N(C)CC(=O)N(C)CC(=O)N(C)CC(=O)N(C)CC(=O)N(C)CC(=O)N(C)CC(=O)N(C)CC(=O)N(C)CC(=O)N(C)CC(=O)N[C@@H](C)C(=O)N[C@H]6CSCc7cc8cc(c7)CSC[C@H](NC(=O)[C@@H](C)NC(=O)[C@H](Cc7cccc9ccccc79)NC(=O)[C@H](CCC(=O)O)NC(=O)[C@H](CC(N)=O)NC(=O)[C@@H](C)NC6=O)C(=O)N[C@@H](CCC(=O)O)C(=O)N[C@@H](CC(=O)O)C(=O)N[C@@H](Cc6ccccc6)C(=O)N[C@@H](Cc6ccc(O)cc6)C(=O)N[C@@H](CC(=O)O)C(=O)N[C@@H](C(C)(C)C)C(=O)N[C@H](C(N)=O)CSC8)nn5)CCC4)cc3)nc3ccccc3c2n1CC(C)(C)O [I-29] (X8-[X5][βAla][Sar][Sar][Sar][Sar][Sar][Sar][Sar][Sar][Sar][Sar]AC[dA]NE[1Nal][dA]CEDFYD[Tle]C-NH2; linker 14-20-27 via TBMB) | < 120 | 360 to 1440 | > 1440 | > 1440 | > 1440 | – | – | – | – | – | –
5 | CCOCc1nc2c(NC(=O)CCCC(=O)NCCC(=O)N(C)CC(=O)N(C)CC(=O)N(C)CC(=O)N(C)CC(=O)N(C)CC(=O)N(C)CC(=O)N(C)CC(=O)N(C)CC(=O)N(C)CC(=O)N(C)CC(=O)N[C@@H](C)C(=O)N[C@H]3CSCc4cc5cc(c4)CSC[C@H](NC(=O)[C@@H](C)NC(=O)[C@H](Cc4cccc6ccccc46)NC(=O)[C@H](CCC(=O)O)NC(=O)[C@H](CC(N)=O)NC(=O)[C@@H](C)NC3=O)C(=O)N[C@@H](CCC(=O)O)C(=O)N[C@@H](CC(=O)O)C(=O)N[C@@H](Cc3ccccc3)C(=O)N[C@@H](Cc3ccc(O)cc3)C(=O)N[C@@H](CC(=O)O)C(=O)N[C@@H](C(C)(C)C)C(=O)N[C@H](C(N)=O)CSC5)nc3ccccc3c2n1CC(C)(C)O [I-25] ({Resiquimod-Glutaryl-βAla}-[Sar][Sar][Sar][Sar][Sar][Sar][Sar][Sar][Sar][Sar]AC[dA]NE[1Nal][dA]CEDFYD[Tle]C-NH2; linker 12-18-25 via TBMB) | – | > 1440 | > 1440 | > 1440 | > 1440 | – | – | – | – | – | > 1440
6 | CCOCc1nc2c(NC(=O)OCCN(C)C(=O)OCc3ccc(NC(=O)[C@H](CCCNC(N)=O)NC(=O)[C@@H](NC(=O)Cn4cc(CCC(=O)NCCC(=O)N(C)CC(=O)N(C)CC(=O)N(C)CC(=O)N(C)CC(=O)N(C)CC(=O)N(C)CC(=O)N(C)CC(=O)N(C)CC(=O)N(C)CC(=O)N(C)CC(=O)N[C@@H](C)C(=O)N[C@H]5CSCc6cc7cc(c6)CSC[C@H](NC(=O)[C@@H](C)NC(=O)[C@H](Cc6cccc8ccccc68)NC(=O)[C@H](CCC(=O)O)NC(=O)[C@H](CC(N)=O)NC(=O)[C@@H](C)NC5=O)C(=O)N[C@@H](CCC(=O)O)C(=O)N[C@@H](CC(=O)O)C(=O)N[C@@H](Cc5ccccc5)C(=O)N[C@@H](Cc5ccc(O)cc5)C(=O)N[C@@H](CC(=O)O)C(=O)N[C@@H](C(C)(C)C)C(=O)N[C@H](C(N)=O)CSC7)nn4)C(C)C)cc3)nc3ccccc3c2n1CC(C)(C)O [I-32] ({X12-βAla}-[Sar][Sar][Sar][Sar][Sar][Sar][Sar][Sar][Sar][Sar]AC[dA]NE[1Nal][dA]CEDFYD[Tle]C-NH2; linker 12-18-25 via TBMB) | < 120 | < 120 | < 120 | > 1440 | > 1440 | – | – | – | – | – | –
